Source: US10370433B2, “Compositions and methods for diagnosis and treatment of cancer” (BIONTECH AG, priority 2015, dated 2019)
Where two headings read alike, the source gives them in different places.

Legend:
in vivo = settings: BALB/c nu/nu, mouse, iv, total radioactivity; for tissue uptake at 1 h / tissue uptake at 2 h / tissue uptake at 4 h / tissue uptake at 6 h / tissue uptake at 24 h / tissue uptake at 0.5 h: Mean % ID/g; for tissue uptake at 0.5 h: 30 min
[1] = human, in vivo, iv

SMILES: CC[C@H](C)[C@@H]1NC(=O)[C@@H]2CSSC[C@H](NC(=O)[C@H](C)NC(=O)CNC(=O)[C@H](CO)NC(=O)CNC(=O)CON=CC(=O)NCCCC[C@H](NC(=O)[C@H](CO)NC(=O)CNC(=O)[C@H](CO)NC(=O)CNC(=O)[C@H](CCCCNC(=O)C=NOCC(=O)NCC(=O)N[C@@H](CO)C(=O)NCC(=O)N[C@@H](C)C(=O)N[C@H]3CSSC[C@@H]4NC(=O)[C@H](CCCNC(=N)N)NC(=O)CNC(=O)[C@@H]5CCCN5C(=O)[C@@H]5CSSC[C@@H](C(=O)NCC(=O)O)NC(=O)[C@H](Cc6ccc(O)cc6)NC(=O)CNC(=O)[C@H](CC(N)=O)NC(=O)CNC(=O)[C@H](CCCNC(=N)N)NC(=O)[C@H](CSSC[C@H](NC(=O)[C@H](CC(=O)O)NC(=O)[C@@H]6CCCN6C(=O)CNC(=O)[C@H](CCCNC(=N)N)NC(=O)CNC(=O)[C@@H]6CCCN6C(=O)[C@H]([C@@H](C)O)NC(=O)[C@H](Cc6c[nH]c7ccccc67)NC(=O)[C@H](CC(N)=O)NC(=O)[C@H](CO)NC(=O)[C@H](Cc6ccc(O)cc6)NC(=O)[C@@H]6CCCN6C3=O)C(=O)N[C@@H](CCCNC(=N)N)C(=O)N[C@@H](CCCNC(=N)N)C(=O)N[C@@H](CC(=O)O)C(=O)N[C@@H](CO)C(=O)N[C@@H](CC(=O)O)C(=O)N5)NC(=O)[C@H]([C@@H](C)CC)NC4=O)NC(=O)[C@H](CO)NC(=O)CNC(=O)[C@H](CO)NC(=O)CNC(=O)[C@H](CCCCNC(=O)C=NOCC(=O)NCC(=O)N[C@@H](CO)C(=O)NCC(=O)N[C@@H](C)C(=O)N[C@H]3CSSC[C@@H]4NC(=O)[C@H](CCCNC(=N)N)NC(=O)CNC(=O)[C@@H]5CCCN5C(=O)[C@@H]5CSSC[C@@H](C(=O)NCC(=O)O)NC(=O)[C@H](Cc6ccc(O)cc6)NC(=O)CNC(=O)[C@H](CC(N)=O)NC(=O)CNC(=O)[C@H](CCCNC(=N)N)NC(=O)[C@H](CSSC[C@H](NC(=O)[C@H](CC(=O)O)NC(=O)[C@@H]6CCCN6C(=O)CNC(=O)[C@H](CCCNC(=N)N)NC(=O)CNC(=O)[C@@H]6CCCN6C(=O)[C@H]([C@@H](C)O)NC(=O)[C@H](Cc6c[nH]c7ccccc67)NC(=O)[C@H](CC(N)=O)NC(=O)[C@H](CO)NC(=O)[C@H](Cc6ccc(O)cc6)NC(=O)[C@@H]6CCCN6C3=O)C(=O)N[C@@H](CCCNC(=N)N)C(=O)N[C@@H](CCCNC(=N)N)C(=O)N[C@@H](CC(=O)O)C(=O)N[C@@H](CO)C(=O)N[C@@H](CC(=O)O)C(=O)N5)NC(=O)[C@H]([C@@H](C)CC)NC4=O)NC(=O)[C@H](CO)NC(=O)CNC(=O)[C@H](CO)NC(=O)CNC(=O)CN3CCN(CC(=O)O)CCN(CC(=O)O)CCN(CC(=O)O)CC3)C(=O)O)C(=O)N3CCC[C@H]3C(=O)N[C@@H](Cc3ccc(O)cc3)C(=O)N[C@@H](CO)C(=O)N[C@@H](CC(N)=O)C(=O)N[C@@H](Cc3c[nH]c4ccccc34)C(=O)N[C@@H]([C@@H](C)O)C(=O)N3CCC[C@H]3C(=O)NCC(=O)N[C@@H](CCCNC(=N)N)C(=O)NCC(=O)N3CCC[C@H]3C(=O)N[C@@H](CC(=O)O)C(=O)N[C@H]3CSSC[C@H](NC1=O)C(=O)N[C@@H](CCCNC(=N)N)C(=O)NCC(=O)N[C@@H](CC(N)=O)C(=O)NCC(=O)N[C@@H](Cc1ccc(O)cc1)C(=O)N[C@H](C(=O)NCC(=O)O)CSSC[C@H](NC(=O)[C@H](CC(=O)O)NC(=O)[C@H](CO)NC(=O)[C@H](CC(=O)O)NC(=O)[C@H](CCCNC(=N)N)NC(=O)[C@H](CCCNC(=N)N)NC3=O)C(=O)N1CCC[C@H]1C(=O)NCC(=O)N[C@@H](CCCNC(=N)N)C(=O)N2 (single isomer, unassigned) [^177Lu-(MC-FA-012)3, metal not drawn]
- Mean % ID/g, Brain (CT26-huSeprase tumors; 30 min): 0.6895 % ID/g
- Mean % ID/g, Injection site (CT26-huSeprase tumors; 30 min): 4.2434 % ID/g
- Mean % ID/g, Intestine (CT26-huSeprase tumors; 30 min): 0.7435 % ID/g
- Mean % ID/g, Kidneys (CT26-huSeprase tumors; 30 min): 286.7812 % ID/g
- Mean % ID/g, Muscle (CT26-huSeprase tumors; 30 min): 0.0589 % ID/g
- Mean % ID/g, Spleen (CT26-huSeprase tumors; 30 min): 0.9253 % ID/g
- Mean % ID/g, Tumor (CT26-huSeprase tumors; 30 min): 9.8546 % ID/g
- Mean % ID/g, Brain (CT26-huSeprase tumors; 1 h): 0.2284 % ID/g
- Mean % ID/g, Injection site (CT26-huSeprase tumors; 1 h): 15.2418 % ID/g
- Mean % ID/g, Intestine (CT26-huSeprase tumors; 1 h): 0.5079 % ID/g
- Mean % ID/g, Muscle (CT26-huSeprase tumors; 1 h): 0.0423 % ID/g
- Mean % ID/g, Spleen (CT26-huSeprase tumors; 1 h): 0.5493 % ID/g
- Mean % ID/g, Tumor (CT26-huSeprase tumors; 1 h): 6.7929 % ID/g
- Mean % ID/g, Brain (CT26-huSeprase tumors; 2 h): 0.5818 % ID/g
- Mean % ID/g, Intestine (CT26-huSeprase tumors; 2 h): 1.0902 % ID/g
- Mean % ID/g, Kidneys (CT26-huSeprase tumors; 2 h): 272.3888 % ID/g
- Mean % ID/g, Muscle (CT26-huSeprase tumors; 2 h): 0.0317 % ID/g
- Mean % ID/g, Spleen (CT26-huSeprase tumors; 2 h): 0.6561 % ID/g
- Mean % ID/g, Tumor (CT26-huSeprase tumors; 2 h): 8.1504 % ID/g
- Mean % ID/g, Brain (CT26-huSeprase tumors; 4 h): 0.3159 % ID/g
- Mean % ID/g, Intestine (CT26-huSeprase tumors; 4 h): 0.2913 % ID/g
- Mean % ID/g, Kidneys (CT26-huSeprase tumors; 4 h): 245.1877 % ID/g
- Mean % ID/g, Muscle (CT26-huSeprase tumors; 4 h): 0.0241 % ID/g
- Mean % ID/g, Spleen (CT26-huSeprase tumors; 4 h): 0.5931 % ID/g
- Mean % ID/g, Tumor (CT26-huSeprase tumors; 4 h): 7.7667 % ID/g
- Mean % ID/g, Brain (CT26-huSeprase tumors; 6 h): 0.2159 % ID/g
- Mean % ID/g, Intestine (CT26-huSeprase tumors; 6 h): 0.9309 % ID/g
- Mean % ID/g, Kidneys (CT26-huSeprase tumors; 6 h): 259.4467 % ID/g
- Mean % ID/g, Muscle (CT26-huSeprase tumors; 6 h): 0.1259 % ID/g
- Mean % ID/g, Spleen (CT26-huSeprase tumors; 6 h): 0.6287 % ID/g
- Mean % ID/g, Tumor (CT26-huSeprase tumors; 6 h): 7.8057 % ID/g
- Mean % ID/g, Brain (CT26-huSeprase tumors; 24 h): 0.2151 % ID/g
- Mean % ID/g, Intestine (CT26-huSeprase tumors; 24 h): 0.3347 % ID/g
- Mean % ID/g, Kidneys (CT26-huSeprase tumors; 24 h): 213.4107 % ID/g
- Mean % ID/g, Muscle (CT26-huSeprase tumors; 24 h): 0.0253 % ID/g
- Mean % ID/g, Spleen (CT26-huSeprase tumors; 24 h): 0.4561 % ID/g
- Mean % ID/g, Tumor (CT26-huSeprase tumors; 24 h): 5.8505 % ID/g
- Mean % ID/g, Kidneys (CT26-huSeprase tumors; mouse, in vivo): 222.3177 % ID/g
- signal in tumor (CT26-huSeprase tumors; mouse, in vivo): 9.9-5.9
- tumor targeting (CT26-huSeprase tumors; mouse, in vivo): specific tumor targeting
- tissue uptake at 1 h (in vivo): 0.67 %ID/g
- tissue uptake at 2 h (in vivo): 0.607 %ID/g
- tissue uptake at 4 h (in vivo): 0.451 %ID/g
- tissue uptake at 6 h (in vivo): 0.648 %ID/g
- tissue uptake at 24 h (in vivo): 0.189 %ID/g
- tissue uptake at 0.5 h (in vivo; Blood): 1.35 %ID/g
- tissue uptake at 1 h (in vivo; Blood): 0.36 %ID/g
- tissue uptake at 2 h (in vivo; Blood): 0.135 %ID/g
- tissue uptake at 4 h (in vivo; Blood): 0.042 %ID/g
- tissue uptake at 6 h (in vivo; Blood): 0.0374 %ID/g
- tissue uptake at 24 h (in vivo; Blood): 0.0429 %ID/g
- tissue uptake at 0.5 h (in vivo; Heart): 0.615 %ID/g
- tissue uptake at 1 h (in vivo; Heart): 0.187 %ID/g
- tissue uptake at 2 h (in vivo; Heart): 0.128 %ID/g
- tissue uptake at 4 h (in vivo; Heart): 0.102 %ID/g
- tissue uptake at 6 h (in vivo; Heart): 0.0876 %ID/g
- tissue uptake at 24 h (in vivo; Heart): 0.0641 %ID/g
- tissue uptake at 2 h (in vivo; Injection site): 2.87 %ID/g
- tissue uptake at 4 h (in vivo; Injection site): 2.61 %ID/g
- tissue uptake at 6 h (in vivo; Injection site): 1.57 %ID/g
- tissue uptake at 24 h (in vivo; Injection site): 0.983 %ID/g
- tissue uptake at 0.5 h (in vivo; Liver): 0.668 %ID/g
- tissue uptake at 1 h (in vivo; Liver): 0.398 %ID/g
- tissue uptake at 2 h (in vivo; Liver): 0.44 %ID/g
- tissue uptake at 4 h (in vivo; Liver): 0.41 %ID/g
- tissue uptake at 6 h (in vivo; Liver): 0.431 %ID/g
- tissue uptake at 24 h (in vivo; Liver): 0.363 %ID/g
- tissue uptake (in vivo; signal in kidney): 287 %ID/g
- acute nephrotoxicity [1]: no acute nephrotoxicity
